Data published in paper PMC9105653, “Zinc and Copper Ions Induce Aggregation of Human β-Crystallins” (Molecules, 2022).

Target: the molecule itself
Assay: dynamic light scattering; 50 µM protein in 10 mM Hepes pH 8.0, 100 mM NaCl (buffer B), without metal ions; apparent RH compared with the RH predicted (HullRad) from face-en-face dimer models

| Protein | stoichiometry N |
| --- | --- |
| human βB2-crystallin (HβB2) (natural protein, human beta-crystallin B2; printed length 205 residues; source: E. coli BL21-RIL, purified (HisTrap, SUMO protease Ulp1 cleavage, second HisTrap, Q-Sepharose)) ASDHQTQAGKPQSLNPKIIIFEQENFQGHSHELNGPCPNLKETGVEKAGSVLVQAGPWVGYEQANCKGEQFVFEKGEYPRWDSWTSSRRTDSLSSLRPIKVDSQEHKIILYENPNFTGKKMEIIDDDVPSFHAHGYQEKVSSVRVQSGTWVGYQYPGYRGLQYLLEKGDYKDSSDFGAPHPQVQSVRRIRDMQWHQRGAFHPSN | 2 |
| human βA1-crystallin (HβA1) (natural protein, UniProt P05813-2 1-198, looked up, human beta-crystallin A1, the shorter product of the gene CRYBA1 (made with betaA3 from the same gene by leaky ribosomal scanning); printed length 198 residues; source: E. coli BL21-RIL, purified (HisTrap, SUMO protease Ulp1 cleavage, second HisTrap, Q-Sepharose)) MAQTNPTPGSLGPWKITIYDQENFQGKRMEFTSSCPNVSERSFDNVRSLKVESGAWIGYEHTSFCGQQFILERGEYPRWDAWSGSNAYHIERLMSFRPICSANHKESKMTIFEKENFIGRQWEISDDYPSLQAMGWFNNEVGSMKIQSGAWVCYQYPGYRGYQYILECDHHGGDYKHWREWGSHAQTSQIQSIRRIQQ | 2 |
